# T1: Human OX40 (Sino Biological Inc) (human, UniProt P43489 29-216, limits assumed)
# T1 construct: Bought soluble protein used as SPR analyte; also called huOX40
# T1 sequence: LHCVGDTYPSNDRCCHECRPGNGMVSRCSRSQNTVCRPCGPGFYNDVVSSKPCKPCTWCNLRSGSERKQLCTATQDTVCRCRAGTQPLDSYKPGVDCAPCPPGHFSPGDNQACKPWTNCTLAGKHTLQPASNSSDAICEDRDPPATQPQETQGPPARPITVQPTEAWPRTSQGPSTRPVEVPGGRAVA
# Molecular target: T1, Human OX40 (Sino Biological Inc)
# Experiment: SPR (Biacore), antibody captured via anti-human Fc, huOX40 analyte
# Method: The binding kinetics of the anti-OX40 antibodies was measured using surface plasmon resonance (SPR) on a Biacore 3000 instrument (GE Healthcare). Anti-human Fc (GE Healthcare) was immobilized on a CM5 sensor chip via amine-based coupling using manufacturer provided protocol. Anti-OX40 antibody was captured at a level of 300-400 resonance units (RU). Antibody binding was measured to human OX40 (Sino Biological Inc). Two-fold concentration series of huOX40 with a range of either 18.75 to 300 nM or 6.25 to 200 nM were used for the experiments. Sensorgrams for binding of OX40 were recorded using an injection time of 2 minutes with a flow rate of 30 μl/min, at a temperature of 25° C., and with a running buffer of 10 mM HEPES, pH 7.4, 150 mM NaCl, and 0.005% Tween 20. After injection, disassociation of the ligand from the antibody was monitored for 600 seconds in running buffer. The surface was regenerated between binding cycles with a 40 μl injection of 3 M Magnesium Chloride.
Kd [nM],koff [s⁻¹],kon [M⁻¹ s⁻¹],Binder
0.525,0.000243,462000,"1A7.gr.3 (antibody, V domains shown, human Fc) VH: EVQLVQSGAEVKKPGASVKVSCKASGYTFTDSYMSWVRQAPGQGLEWIGDMYPDNGDSSYNQKFRERVTLTVDTSTSTAYLELSSLRSEDTAVYYCVLAPRWYFSVWGQGTLVTVSS VL: DIQMTQSPSSLSASVGDRVTITCRASQDISNYLNWYQQKPGKAPKLLIYYTSRLRSGVPSRFSGSGSGTDFTLTISSLQPEDFATYYCQQGHTLPPTFGQGTKVEIK"
0.36,0.000145,401000,"1A7.gr.7′ (antibody, V domains shown, human Fc) VH: EVQLVQSGAEVKKPGASVKVSCKASGYTFTDSYMSWVRQAPGQGLEWIGDMYPDNGDSSYNQKFRERVTLTVDTSTSTAYLELSSLRSEDTAVYYCVLAPRWYFSVWGQGTLVTVSS VL: DIQMTQSPSSLSASVGDRVTITCRASQDISNYLNWYQQKPGKTVKLLIYYTSRLRSGVPSRFSGSGSGKDYTLTISSLQPEDFATYFCQQGHTLPPTFGQGTKVEIK"
0.177,6.93e-05,391000,"1A7.gr.6 (antibody, V domains shown, human Fc) VH: EVQLVQSGAEVKKPGASVKVSCKASGYTFTDSYMSWVRQAPGQGLEWIGDMYPDNGDSSYNQKFRERVTITVDTSTSTAYLELSSLRSEDTAVYYCVLAPRWYFSVWGQGTLVTVSS VL: DIQMTQSPSSLSASVGDRVTITCRASQDISNYLNWYQQKPGKTVKLLIYYTSRLRSGVPSRFSGSGSGKDYTLTISSLQPEDFATYFCQQGHTLPPTFGQGTKVEIK"
1.77,0.000492,278000,"1A7.gr.5′ (antibody, V domains shown, human Fc) VH: EVQLVQSGAEVKKPGASVKVSCKASGYTFTDSYMSWVRQAPGQGLEWIGDMYPDNGDSSYNQKFRERVTLTVDTSTSTAYLELSSLRSEDTAVYYCVLAPRWYFSVWGQGTLVTVSS VL: DIQMTQSPSSLSASVGDRVTITCRASQDISNYLNWYQQKPGKTVKLLIYYTSRLRSGVPSRFSGSGSGTDFTLTISSLQPEDFATYYCQQGHTLPPTFGQGTKVEIK"
0.472,0.000163,345000,"1A7.gr.4 (antibody, V domains shown, human Fc) VH: EVQLVQSGAEVKKPGASVKVSCKASGYTFTDSYMSWVRQAPGQGLEWIGDMYPDNGDSSYNQKFRERVTITVDTSTSTAYLELSSLRSEDTAVYYCVLAPRWYFSVWGQGTLVTVSS VL: DIQMTQSPSSLSASVGDRVTITCRASQDISNYLNWYQQKPGKTVKLLIYYTSRLRSGVPSRFSGSGSGTDFTLTISSLQPEDFATYYCQQGHTLPPTFGQGTKVEIK"
6.49,0.00267,412000,"3C8.gr.1 (antibody, V domains shown, human Fc) VH: EVQLVQSGAEVKKPGASVKVSCKASGYAFTNYLIEWVRQAPGQGLEWIGVINPGSGDTYYSEKFKGRVTITRDTSTSTAYLELSSLRSEDTAVYYCARDRLDYWGQGTLVTVSS VL: DIQMTQSPSSLSASVGDRVTITCHASQDISSYIVWYQQKPGKAPKLLIYHGTNLEDGVPSRFSGSGSGTDFTLTISSLQPEDFATYYCVHYAQFPYTFGQGTKVEIK"
3.94,0.00196,498000,"3C8.gr.3 (antibody, V domains shown, human Fc) VH: EVQLVQSGAEVKKPGASVKVSCKASGYAFTNYLIEWVRQAPGQGLEWIGVINPGSGDTYYSEKFKGRVTLTADTSTSTAYLELSSLRSEDTAVYYCARDRLDYWGQGTLVTVSS VL: DIQMTQSPSSLSASVGDRVTITCHASQDISSYIVWYQQKPGKAPKLLIYHGTNLEDGVPSRFSGSGSGTDFTLTISSLQPEDFATYYCVHYAQFPYTFGQGTKVEIK"
3.08,0.00122,395000,"3C8.gr.6 (antibody, V domains shown, human Fc) VH: EVQLVQSGAEVKKPGASVKVSCKASGYAFTNYLIEWVRQAPGQGLEWIGVINPGSGDTYYSEKFKGRVTITADTSTSTAYLELSSLRSEDTAVYYCARDRLDYWGQGTLVTVSS VL: DIQMTQSPSSLSASVGDRVTITCHASQDISSYIVWYQQKPGKSFKGLIYHGTNLEDGVPSRFSGSGSGADYTLTISSLQPEDFATYYCVHYAQFPYTFGQGTKVEIK"
4.28,0.00173,404000,"3C8.gr.9 (antibody, V domains shown, human Fc) VH: EVQLVQSGAEVKKPGASVKVSCKASGYAFTNYLIEWVRQAPGQGLEWIGVINPGSGDTYYSEKFKGRVTLTRDTSTSTAYLELSSLRSEDTAVYYCARDRLDYWGQGTLVTVSS VL: DIQMTQSPSSLSASVGDRVTITCHASQDISSYIVWYQQKPGKSPKLLIYHGTNLEDGVPSRFSGSGSGTDFTLTISSLQPEDFATYYCVHYAQFPYTFGQGTKVEIK"
5.48,0.00255,466000,"3C8.gr.2 (antibody, V domains shown, human Fc) VH: EVQLVQSGAEVKKPGASVKVSCKASGYAFTNYLIEWVRQAPGQGLEWIGVINPGSGDTYYSEKFKGRVTITADTSTSTAYLELSSLRSEDTAVYYCARDRLDYWGQGTLVTVSS VL: DIQMTQSPSSLSASVGDRVTITCHASQDISSYIVWYQQKPGKAPKLLIYHGTNLEDGVPSRFSGSGSGTDFTLTISSLQPEDFATYYCVHYAQFPYTFGQGTKVEIK"
1.41,0.000685,486000,"3C8.gr.7 (antibody, V domains shown, human Fc) VH: EVQLVQSGAEVKKPGASVKVSCKASGYAFTNYLIEWVRQAPGQGLEWIGVINPGSGDTYYSEKFKGRVTLTADTSTSTAYLELSSLRSEDTAVYYCARDRLDYWGQGTLVTVSS VL: DIQMTQSPSSLSASVGDRVTITCHASQDISSYIVWYQQKPGKSFKGLIYHGTNLEDGVPSRFSGSGSGADYTLTISSLQPEDFATYYCVHYAQFPYTFGQGTKVEIK"
1.17,0.000534,457000,"3C8.gr.5.QG (antibody, V domains shown) VH: EVQLVQSGAEVKKPGASVKVSCKASGYAFTNYLIEWVRQAPGQGLEWIGVINPGSGDTYYSEKFKGRVTLTADTSTSTAYLELSSLRSEDTAVYYCARDRLDYWGQGTLVTVSS VL: DIQMTQSPSSLSASVGDRVTITCHASQDISSYIVWYQQKPGKSFKGLIYHGTNLEQGVPSRFSGSGSGTDFTLTISSLQPEDFATYYCVHYAQFPYTFGQGTKVEIK"
2.2,0.000923,420000,"3C8.gr.4 (antibody, V domains shown, human Fc) VH: EVQLVQSGAEVKKPGASVKVSCKASGYAFTNYLIEWVRQAPGQGLEWIGVINPGSGDTYYSEKFKGRVTITADTSTSTAYLELSSLRSEDTAVYYCARDRLDYWGQGTLVTVSS VL: DIQMTQSPSSLSASVGDRVTITCHASQDISSYIVWYQQKPGKSFKGLIYHGTNLEDGVPSRFSGSGSGTDFTLTISSLQPEDFATYYCVHYAQFPYTFGQGTKVEIK"
2.16,0.000709,329000,"3C8.gr.8 (antibody, V domains shown, human Fc) VH: EVQLVQSGAEVKKPGASVKVSCKASGYAFTNYLIEWVRQAPGQGLEWIGVINPGSGDTYYSEKFKGRVTLTRDTSTSTAYLELSSLRSEDTAVYYCARDRLDYWGQGTLVTVSS VL: DIQMTQSPSSLSASVGDRVTITCHASQDISSYIVWYQQKPGKSFKGLIYHGTNLEDGVPSRFSGSGSGTDFTLTISSLQPEDFATYYCVHYAQFPYTFGQGTKVEIK"

# — patent publication US20150307617A1 (Genentech, published 2015)
